From publication doi:10.1101/2022.10.13.512040 (bioRxiv, 2022)
One block for each binder: values may come before it.

Experiments:
[1] = biological target: Arabidopsis thaliana PIN1 (PIN-FORMED 1 auxin transporter) (Arabidopsis thaliana, UniProt Q9C6B8); experiment: cryo-EM structure
[2] = biological target: the molecule itself; experiment: cryo-EM structure

binding result [1]: binds
B1: sybody-21 (VHH)
VHH: QVQLVESGGGLVQAGGSLRLSCAASGFPVNISWMEWYRQVPGKEREWVAAIQSTGSYTWYADSVKGRFTISRDNAKNTVYLQMNSLKPEDTAVYYCRVKVGAYYRGQGTQVTVSA

B2: Arabidopsis thaliana PIN1 (PIN-FORMED 1 auxin transporter) (natural protein)
chain: MITAADFYHVMTAMVPLYVAMILAYGSVKWWKIFTPDQCSGINRFVALFAVPLLSFHFIAANNPYAMNLRFLAADSLQKVIVLSLLFLWCKLSRNGSLDWTITLFSLSTLPNTLVMGIPLLKGMYGNFSGDLMVQIVVLQCIIWYTLMLFLFEYRGAKLLISEQFPDTAGSIVSIHVDSDIMSLDGRQPLETEAEIKEDGKLHVTVRRSNASRSDIYSRRSQGLSATPRPSNLTNAEIYSLQSSRNPTPRGSSFNHTDFYSMMASGGGRNSNFGPGEAVFGSKGPTPRPSNYEEDGGPAKPTAAGTAAGAGRFHYQSGGSGGGGGAHYPAPNPGMFSPNTGGGGGTAAKGNAPVVGGKRQDGNGRDLHMFVWSSSASPVSDVFGGGGGNHHADYSTATNDHQKDVKISVPQGNSNDNQYVEREEFSFGNKDDDSKVLATDGGNNISNKTTQAKVMPPTSVMTRLILIMVWRKLIRNPNSYSSLFGITWSLISFKWNIEMPALIAKSISILSDAGLGMAMFSLGLFMALNPRIIACGNRRAAFAAAMRFVVGPAVMLVASYAVGLRGVLLHVAIIQAALPQGIVPFVFAKEYNVHPDILSTAVIFGMLIALPITLLYYILLGL
binding result [2]: binds
